Results on four molecules are retold here after US12269859B2, “Synthetic immune receptors and methods of use thereof” (Angeles Therapeutics, Inc., priority 2016, dated 2025).

This experiment deals with target antigen-expressing cell line. Nature of the experiment: Jurkat NFAT-GFP assay, coculture with target cell lines expressing the respective target antigen (summary Table 10A). The conditions noted are these: relative % GFP positive cells; for NFAT-GFP ASSAY Positive Cell lines: RAJI: SIR-expressing Jurkat-NFAT-GFP cells cocultured with RAJI; for NFAT-GFP ASSAY Positive Cell lines: LAN5: SIR-expressing Jurkat-NFAT-GFP cells cocultured with LAN5. Also on record: key: The signs +/−, +, 2+ etc. after the name of the cell lines indicate the relative degree of positivity on the Jurkat-NFAT-GFP assay as measured by the % GFP positive cells; +: relative degree of positivity on the Jurkat-NFAT-GFP assay as measured by the % GFP positive cells; 2+: relative degree of positivity on the Jurkat-NFAT-GFP assay as measured by the % GFP positive cells. It is filed as cell-based, human. Here is the method: (B) Induction of NFAT promoter driven GFP expression. The control vector- and SIR-expressing Jurkat-NFAT-GFP cocultured for 4-24 hours with the target antigen-expressing cell line (described above) and their ability to bind to the target antigen is assayed by measuring induction of GFP expression using Flow Cytometry. Cellular supernatant is collected and assayed for the induction of cytokines (e.g., IL2).
Jurkat NFAT-GFP Assay For Synthetic Immune Receptors. The Jurkat-NFAT-GFP cells are engineered in such a way that the IL-2 promoter, which carries NFAT binding sites, is cloned upstream of the GFP gene. These cells have been used to study signaling via TCR and CAR. The different SIRs were stably expressed in Jurkat NFAT-GFP cells by lentiviral mediated gene transfer, followed by selection with puromycin. The SIR-expressing Jurkat-NFAT-GFP cells were cocultured with the target cells at E:T ratio of approximately 1:2 for approximately 4 hours to 18 hours. When the interaction between SIRs and their target antigen results in activation of the NFAT pathway, GFP expression is induced.
Induction of GFP expression by coculturing of Jurkat-NFAT-GFP cells expressing different SIR constructs and the different target cells was studied essentially as described previously (Wu, Roybal, Puchner, Onuffer, & Lim, 2015). GFP expression was monitored by FACS analysis. A few representative examples of this assay are shown in the FIG. 13A-B. In panel A, control Jurkat-NFAT-GFP cells or those expressing SIRs targeting CD19 (clone ID 051716-I08), MPL (Clone ID: 040716-A07) and BCMA (Clone ID: 011116-A07) were incubated with RAJI (top), HEL (middle) or U266 (bottom) cells, respectively. […] In panel B, Jurkat cells expressing SIR targeting CDH6 (Clone ID: 051716-J05), CD276 (Clone ID: 050516-Q06) and Her2/neu (Clone ID: 050516-I03) were incubated with SKOV3 (top) and […] (middle and bottom) cells, respectively. […] The Jurkat-NFAT-GFP cells were engineered to express different SIRs targeting other antigens and the experiment repeated upon coculture with the target cells expressing their respective target antigen. The Jurkat-NFAT-GFP (parental) cells were used as control. The names of different SIRs, their SEQ ID NOs, component antigen binding domains and TCR chains can be determined by reference to Tables 7A-7H. A SIR is considered positive in the assay in case the SIR expressing Jurkat-NFAT-GFP cells show greater % GFP positive cells when cultured with the target cell line as compared to parental Jurkat-NFAT-GFP cells. […] The signs +/−, +, 2+ etc. after the name of the cell lines indicate the relative degree of positivity on the Jurkat-NFAT-GFP assay as measured by the % GFP positive cells after culture of the SIR expressing Jurkat-NFAT-GFP cells with that cell line. […] In addition, great diversity of response against the same target cell line is observed with Jurkat cells expressing SIRs containing different antigen binding domains targeting the same antigen (e.g., SIRs having antigen binding domains derived form different CD19 antibodies) even when the SIRs share the same TCR chains and linkers. Finally, Jurkat cells expressing SIRs targeting different antigens (e.g. CD19 vs CD20) show a diversitiy of response when exposed to the same target cell line. Thus, a diverse immune response can be generated against a single target cell by combining SIRs with different TCR chains, linkers, antigen binding domains and target specificity. Table 10A also summarizes the results of GLuc based T cell cytotoxicity assay observed with different SIRs when exposed to their target cell lines. […]

B1: 052316-D03 (protein)
chain: MALPVTALLLPLALLLHAARPDEIVLTQSPATLSLSPGERATLSCSASSSVSYMHWYQQKPGQAPRLLIYDTSKLASGIPARFSGSGSGTDFTLTISSLEPEDVAVYYCFQGSVYPFTFGQGTKLEIKRGGGGSGGGGSGGGGSQVQLQESGPGLVKPSQTLSLTCTVSGGSISTSGMGVGWIRQHPGKGLEWIGHIWWDDDKRYNPALKSRVTISVDTSKNQFSLKLSSVTAADTAVYYCARMELWSYYFDYWGQGTLVTVSSLEDLKNVFPPEVAVFEPSEAEISHTQKATLVCLATGFYPDHVELSWWVNGKEVHSGVSTDPQPLKEQPALNDSRYCLSSRLRVSATFWQNPRNHFRCQVQFYGLSENDEWTQDRAKPVTQIVSAEAWGRADCGFTSESYQQGVLSATILYEILLGKATLYAVLVSALVLMAMVKRKDSRGRAKRSGSGATNFSLLKQAGDVEENPGPTSMDWIWRILFLVGAATGAHSFEGSGTREQKLISEEDGSGIQNPDPAVYQLRDSKSSDKSVCLFTDFDSQTNVSQSKDSDVYITDKCVLDMRSMDFKSNSAVAWSNKSDFACANAFNNSIIPEDTFFPSPESSCDVKLVEKSFETDTNLNFQNLSVIGFRILLLKVAGFNLLMTLRLWSSRAKRSGSGVKQTLNFDLLKLAGDVESNPGPSRGHMTEYKPTVRLATRDDVPRAVRTLAAAFADYPATRHTVDPDRHIERVTELQELFLTRVGLDIGKVWVADDGAAVAVWTTPESVEAGAVFAEIGPRMAELSGSRLAAQQQMEGLLAPHRPKEPAWFLATVGVSPDHQGKGLGSAVVLPGVEAAERAGVPAFLETSAPRNLPFYERLGFTVTADVEVPEGPRTWCMTRKPGA
modifications: Synthetic Immune Receptor (SIR)
In the case of B1, the “NFAT-GFP ASSAY Positive Cell lines: RAJI” value was “RAJI (+)”.

B2: 042916-D02 (protein)
chain: MALPVTALLLPLALLLHAARPLEGKPIPNPLLGLDSTGSGEDLKNVFPPEVAVFEPSKAEIAHTQKATLVCLATGFYPDHVELSWWVNGKEVHSGVCTDPQPLKEQPALNDSRYCLSSRLRVSATFWQNPRNHFRCQVQFYGLSENDEWTQDRAKPVTQIVSAEAWGRADCGITSASYHQGVLSATILYEILLGKATLYAVLVSALVLMAMVKRKDSRGRAKRSGSGATNFSLLKQAGDVEENPGPTSTMALPVTALLLPLALLLHAARPDVQMIQTPSSLSASLGDRVTISCRASQDIGNYLNWYQQKPDGTVKLLIYYTSRLHSGVPSRFSGSGSGTEYSLTISNLEQEDIATYFCQQGSALPPTFGGGTKLEINGGGGSGGGGSGGGGSALQLQQSGAELVRPGASVTLSCKASGYTFTDYEMHWVKQTPVHGLEWIGAIDPETGGTAYNQKFEGKAILTADKSSSTAYMELRSLTSEDSPVYYCARRRYYGSSSFDYWGQGTTLTVSSTREQKLISEEDGSGIQNPDPAVYQLRDSKSSDKSVCLFTDFDSQTNVSQSKDSDVYITDKCVLDMRSMDFKSNSAVAWSNKSDFACANAFNNSIIPEDTFFPSSDVPCDVKLVEKSFETDTNLNFQNLSVIGFRILLLKVAGFNLLMTLRLWSSRAKRSGSGVKQTLNFDLLKLAGDVESNPGPSRGHMTEYKPTVRLATRDDVPRAVRTLAAAFADYPATRHTVDPDRHIERVTELQELFLTRVGLDIGKVWVADDGAAVAVWTTPESVEAGAVFAEIGPRMAELSGSRLAAQQQMEGLLAPHRPKEPAWFLATVGVSPDHQGKGLGSAVVLPGVEAAERAGVPAFLETSAPRNLPFYERLGFTVTADVEVPEGPRTWCMTRKPGA
modifications: Synthetic Immune Receptor (SIR)
As to B2, the “NFAT-GFP ASSAY Positive Cell lines: LAN5” value is listed as “LAN5 (2+)”.

B3: 121515-X07 (protein)
chain: MALPVTALLLPLALLLHAARPLEGKPIPNPLLGLDSTGSGEDLKNVFPPEVAVFEPSKAEIAHTQKATLVCLATGFYPDHVELSWWVNGKEVHSGVCTDPQPLKEQPALNDSRYCLSSRLRVSATFWQNPRNHFRCQVQFYGLSENDEWTQDRAKPVTQIVSAEAWGRADCGITSASYHQGVLSATILYEILLGKATLYAVLVSALVLMAMVKRKDSRGRAKRSGSGATNFSLLKQAGDVEENPGPTSTMALPVTALLLPLALLLHAARPDEIVLTQSPATLSLSPGERATLSCSASSSVSYMHWYQQKPGQAPRLLIYDTSKLASGIPARFSGSGSGTDFTLTISSLEPEDVAVYYCFQGSVYPFTFGQGTKLEIKRGGGGSGGGGSGGGGSQVQLQESGPGLVKPSQTLSLTCTVSGGSISTSGMGVGWIRQHPGKGLEWIGHIWWDDDKRYNPALKSRVTISVDTSKNQFSLKLSSVTAADTAVYYCARMELWSYYFDYWGQGTLVTVSSTREQKLISEEDLGSGTPFPSLAPPIMLLVDGKQQMVVVCLVLDVAPPGLDSPIWFSAGNGSALDAFTYGPSPATDGTWTNLAHLSLPSEELASWEPLVCHTGPGAEGHSRSTQPMHLSGEASTARTCPQEPLRGTPGGALWLGVLRLLLFKLLLFDLLLTCSCLCDPAGPLPSPATTTRLRALGSHRLHPATETGGREATSSPRPQPRDRRWGDTPPGRKPGSPVRAKRSGSGVKQTLNFDLLKLAGDVESNPGPSRGHMTEYKPTVRLATRDDVPRAVRTLAAAFADYPATRHTVDPDRHIERVTELQELFLTRVGLDIGKVWVADDGAAVAVWTTPESVEAGAVFAEIGPRMAELSGSRLAAQQQMEGLLAPHRPKEPAWFLATVGVSPDHQGKGLGSAVVLPGVEAAERAGVPAFLETSAPRNLPFYERLGFTVTADVEVPEGPRTWCMTRKPGA
modifications: Synthetic Immune Receptor (SIR)
B3: the “NFAT-GFP ASSAY Positive Cell lines: RAJI” value is “RAJI (+)”.

B4: 042916-C05 (protein)
chain: MALPVTALLLPLALLLHAARPLEGKPIPNPLLGLDSTGSGEDLKNVFPPEVAVFEPSKAEIAHTQKATLVCLATGFYPDHVELSWWVNGKEVHSGVCTDPQPLKEQPALNDSRYCLSSRLRVSATFWQNPRNHFRCQVQFYGLSENDEWTQDRAKPVTQIVSAEAWGRADCGITSASYHQGVLSATILYEILLGKATLYAVLVSALVLMAMVKRKDSRGRAKRSGSGATNFSLLKQAGDVEENPGPTSTMALPVTALLLPLALLLHAARPDVQMIQTPDSLAVSLGQRATISCRASESVDNYGISFMHWYQQKPGQSPKLLIYRASNLESGIPARFSGSGSRTDFTLTINPVETDDVATYYCQQNNKDPPTFGGGTKLEIKGGGGSGGGGSGGGGSGGGGSQVQLQQSGAELVKPGASVKISCKASGYAFSSYWMNWVKQRPGKGLEWIGQIYPGDGDTTYNGKFKGKATLTADKSSSTVYMQLNSLTSEDSAVYFCVRYYYGSSGYFDYWGQGTTLTVSSTREQKLISEEDGSGIQNPDPAVYQLRDSKSSDKSVCLFTDFDSQTNVSQSKDSDVYITDKCVLDMRSMDFKSNSAVAWSNKSDFACANAFNNSIIPEDTFFPSSDVPCDVKLVEKSFETDTNLNFQNLSVIGFRILLLKVAGFNLLMTLRLWSSRAKRSGSGVKQTLNFDLLKLAGDVESNPGPSRGHMTEYKPTVRLATRDDVPRAVRTLAAAFADYPATRHTVDPDRHIERVTELQELFLTRVGLDIGKVWVADDGAAVAVWTTPESVEAGAVFAEIGPRMAELSGSRLAAQQQMEGLLAPHRPKEPAWFLATVGVSPDHQGKGLGSAVVLPGVEAAERAGVPAFLETSAPRNLPFYERLGFTVTADVEVPEGPRTWCMTRKPGA
modifications: Synthetic Immune Receptor (SIR)
B4: the “NFAT-GFP ASSAY Positive Cell lines: LAN5” value is given as “LAN5 (+/−)”.
